The values that follow come from patent publication EP2105501A1 (Immatics Biotechnologies GmbH, dated 2009).

The target of the assay is T1, HLA-A*0205 (human).
T1 construct: Native HLA immunoprecipitated from shock-frozen tumor tissue
The assay can be described thus: HLA immunoprecipitation from glioblastoma tissue, peptide elution, ESI-LCMS/MS.

B1: PTP-001 (peptide)
peptide: ALTTLMHQL
notes: Natural HLA ligand eluted from glioblastoma tissue
For B1, the binding result is given as “binds”.
